Assay results reported in the supplement of paper PMC7877785.
± gives the uncertainty stated by the source.

Assay: self-splicing fitness, log relative to wild type (ln ratio); higher = more splicing; Tetrahymena group I intron in knt gene, E. coli kanamycin selection, DiMSum; sequences stand for … in CUCUCU…GGAGGGAAAAGUUAUCAGGCAUGCACCUGGUAGCUAGUCUUUAAACCAAUAGAUUGCAUCGGUUUAAAAGGCAAGACCGUCAAAUUGCGGGAAAGGGGUCAACAGCCGUUCAGUACCAAGUCUCAGGGGAAACUUUGAGAUGGCCUUGCAAAGGGUAUGGUAAUAAGCUGACGGACAUGGUCCUAACCACGCAGCCAAGUCCUAAGUCAACAGAUCUUCUGUUGAUAUGGAUGCAGUUCACAGACUAAAUGUCGGUCGGGGAAGAUGUAUUCUUCUCAUAAGAUAUAGUCGGACCUCUCCUUAAUGGGAGCUAGCGGAUGAAGUGAUGCAACACUGGAGCCGCUGGGAACUAAUUUGUAUGCGAAAGUAUAUUGAUUAGUUUUGGAGUACUCGUGGUCG
Procedure, shortened: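 The eight P1ex-region nucleotides of an intron in the knt kanamycin-resistance gene on pET-22b(+) were all randomised and the library put into E. coli BL21(DE3). Six replicate transformations were grown overnight at 37°C or 30°C on LB agar with or without 25 μg/mL kanamycin, together with 100 μg/mL carbenicillin, 50 μM IPTG and 0.2% rhamnose. Colonies were pooled and amplicon-sequenced on an Illumina HiSeq 2500. Fitness from DiMSum is the error-weighted combination of wild-type-normalised replicate fold changes, kanamycin over none.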

| Sequence | self-splicing fitness (ln) (30 °C) | self-splicing fitness (ln) (37 °C) |
| --- | --- | --- |
| UGUGAGCAAUAUUACGGCUA | -0.645 ± 0.13 | -0.508 ± 0.15 |
| UGUGAGCAAUAUUACGGGGC | -3.14 ± 0.39 | -2.25 ± 0.33 |
| UGUGAGCAAUAUUACGGUCA | -0.959 ± 0.056 | -0.333 ± 0.069 |
| UGUGAGCAAUAUUACGGUUA | -2.47 ± 0.2 | -0.332 ± 0.16 |
| UGUGAGCAAUAUUACGUAGU | -2.87 ± 0.24 | -3.06 ± 0.35 |
| UGUGAGCAAUAUUACGUAUU | -3.12 ± 0.16 | -2.63 ± 0.26 |
| UGUGAGCAAUAUUACGUUAC | -3.75 ± 0.37 | -2.6 ± 0.38 |
| UGUGAGCAAUAUUACGUUCG | -3.41 ± 0.22 | -1.32 ± 0.15 |
| UGUUAGCAAUAUUACGAAAG | -2.64 ± 0.14 | -2.73 ± 0.25 |
| UGUUAGCAAUAUUACGACGC | -1.59 ± 0.2 | -1.47 ± 0.32 |
| UGUUAGCAAUAUUACGAGAG | -3.33 ± 0.33 | -3.15 ± 0.27 |
| UGUUAGCAAUAUUACGAGUG | -0.0674 ± 0.16 | -0.336 ± 0.18 |
| UGUUAGCAAUAUUACGAUCC | -0.915 ± 0.34 | – |
| UGUUAGCAAUAUUACGAUUA | -0.127 ± 0.093 | 0.424 ± 0.11 |
| UGUUAGCAAUAUUACGCACG | -0.922 ± 0.11 | -0.377 ± 0.12 |
| UGUUAGCAAUAUUACGCAGG | -3.96 ± 0.35 | -2.96 ± 0.25 |
| UGUUAGCAAUAUUACGCCGC | -3.34 ± 0.45 | – |
| UGUUAGCAAUAUUACGCGAC | -3.75 ± 0.4 | -1.59 ± 0.5 |
| UGUUAGCAAUAUUACGCGUG | -0.492 ± 0.11 | -0.61 ± 0.099 |
| UGUUAGCAAUAUUACGCUAU | -3.53 ± 0.49 | -1.29 ± 0.32 |
| UGUUAGCAAUAUUACGCUUG | -2.03 ± 0.14 | -0.556 ± 0.12 |

| Sequence | self-splicing fitness (ln) (30 °C) | self-splicing fitness (ln) (37 °C) |
| --- | --- | --- |
| UGUUAGCAAUAUUACGGCAA | -0.875 ± 0.15 | -0.17 ± 0.14 |
| UGUUAGCAAUAUUACGGGCG | -0.142 ± 0.11 | 0.388 ± 0.12 |
| UGUUAGCAAUAUUACGUCGG | -0.97 ± 0.1 | -0.8 ± 0.17 |
| UGUUAGCAAUAUUACGUGCC | -2.05 ± 0.17 | -0.583 ± 0.21 |
| UGUUAGCAAUAUUACGUGUC | -3.15 ± 0.33 | -1.48 ± 0.28 |
| UGUUAGCAAUAUUACGUUGC | -2.88 ± 0.24 | -1.62 ± 0.26 |
| UGUUAGCAAUAUUACGUUGG | -1.56 ± 0.11 | -1.26 ± 0.14 |
| UUAAAGCAAUAUUACGAUAA | 0.359 ± 0.084 | 0.431 ± 0.1 |
| UUAAAGCAAUAUUACGAUCC | -1.64 ± 0.18 | -0.49 ± 0.24 |
| UUAAAGCAAUAUUACGCAUU | -2.76 ± 0.15 | -2.86 ± 0.27 |
| UUAAAGCAAUAUUACGCCAA | 0.638 ± 0.29 | -0.283 ± 0.39 |
| UUAAAGCAAUAUUACGCCAG | 0.134 ± 0.17 | -1.25 ± 0.21 |
| UUAAAGCAAUAUUACGGAAU | -3.11 ± 0.17 | -1.73 ± 0.17 |
| UUAAAGCAAUAUUACGGAGC | -3.99 ± 0.28 | -0.662 ± 0.23 |
| UUAAAGCAAUAUUACGGAUC | -1.78 ± 0.24 | -0.2 ± 0.21 |
| UUAAAGCAAUAUUACGGGAA | -0.821 ± 0.088 | -0.351 ± 0.12 |
| UUAAAGCAAUAUUACGGGAU | -2.8 ± 0.14 | -0.86 ± 0.12 |
| UUAAAGCAAUAUUACGGUAA | -0.33 ± 0.076 | 0.503 ± 0.1 |
| UUAAAGCAAUAUUACGGUUA | 0.31 ± 0.069 | -0.0607 ± 0.072 |
| UUAAAGCAAUAUUACGUAAA | -1.16 ± 0.12 | -0.0909 ± 0.12 |
| UUAAAGCAAUAUUACGUAGA | -1.55 ± 0.099 | -0.654 ± 0.12 |
